± gives the uncertainty stated by the source.
Experiment: self-splicing fitness, log relative to wild type (ln ratio); higher = more splicing; Tetrahymena group I intron in knt gene, E. coli kanamycin selection, DiMSum; sequences stand for … in CUCUCU…GGAGGGAAAAGUUAUCAGGCAUGCACCUGGUAGCUAGUCUUUAAACCAAUAGAUUGCAUCGGUUUAAAAGGCAAGACCGUCAAAUUGCGGGAAAGGGGUCAACAGCCGUUCAGUACCAAGUCUCAGGGGAAACUUUGAGAUGGCCUUGCAAAGGGUAUGGUAAUAAGCUGACGGACAUGGUCCUAACCACGCAGCCAAGUCCUAAGUCAACAGAUCUUCUGUUGAUAUGGAUGCAGUUCACAGACUAAAUGUCGGUCGGGGAAGAUGUAUUCUUCUCAUAAGAUAUAGUCGGACCUCUCCUUAAUGGGAGCUAGCGGAUGAAGUGAUGCAACACUGGAGCCGCUGGGAACUAAUUUGUAUGCGAAAGUAUAUUGAUUAGUUUUGGAGUACUCGUGGUCG
Method in brief: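 Colonies from six replicate transformations of E. coli BL21(DE3) were pooled and amplicon-sequenced on an Illumina HiSeq 2500. The library placed an intron with all eight P1ex-region nucleotides randomised inside the knt kanamycin-resistance gene on pET-22b(+), and cells grew overnight at 37°C or 30°C on LB agar with or without 25 μg/mL kanamycin (plus 100 μg/mL carbenicillin, 50 μM IPTG, 0.2% rhamnose). Fitness is the DiMSum error-weighted combination of wild-type-normalised replicate fold changes, kanamycin versus none.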

Row | Sequence | self-splicing fitness (ln) (30 °C) | self-splicing fitness (ln) (37 °C)
1 | GGUAAGCAAUAUUACGCACG | 0.408 ± 0.12 | -0.102 ± 0.14
2 | GGUAAGCAAUAUUACGCAUG | -2.62 ± 0.12 | -1.13 ± 0.11
3 | GGUAAGCAAUAUUACGCCAA | -2.07 ± 0.23 | -2.09 ± 0.24
4 | GGUAAGCAAUAUUACGCCGU | -1.93 ± 0.11 | -0.738 ± 0.13
5 | GGUAAGCAAUAUUACGCGGC | -2.84 ± 0.19 | -1.29 ± 0.2
6 | GGUAAGCAAUAUUACGCGUU | -1.34 ± 0.091 | -0.615 ± 0.13
7 | GGUAAGCAAUAUUACGGAAU | -3.35 ± 0.22 | -1.87 ± 0.22
8 | GGUAAGCAAUAUUACGGACG | 0.0239 ± 0.12 | 0.484 ± 0.15
9 | GGUAAGCAAUAUUACGGCGA | -0.523 ± 0.11 | -0.26 ± 0.13
10 | GGUAAGCAAUAUUACGGGUC | -2.39 ± 0.24 | -1.81 ± 0.31
11 | GGUAAGCAAUAUUACGGUAG | -3.72 ± 0.19 | -3.15 ± 0.23
12 | GGUAAGCAAUAUUACGGUUG | -3.76 ± 0.39 | –
13 | GGUAAGCAAUAUUACGUAAA | -0.961 ± 0.083 | -1.13 ± 0.13
14 | GGUAAGCAAUAUUACGUAAG | -2.85 ± 0.16 | -2.17 ± 0.17
15 | GGUAAGCAAUAUUACGUGCA | -0.586 ± 0.089 | -0.233 ± 0.13
16 | GGUAAGCAAUAUUACGUUAC | -3.08 ± 0.34 | -1.35 ± 0.31
17 | GGUCAGCAAUAUUACGAACG | 0.0341 ± 0.039 | 0.332 ± 0.057
18 | GGUCAGCAAUAUUACGAAUA | -0.866 ± 0.13 | -0.645 ± 0.14
19 | GGUCAGCAAUAUUACGAAUU | 0.104 ± 0.078 | 0.599 ± 0.091
20 | GGUCAGCAAUAUUACGACGU | 0.0937 ± 0.091 | 0.477 ± 0.1
21 | GGUCAGCAAUAUUACGACUC | -3.25 ± 0.24 | -1.61 ± 0.32
22 | GGUCAGCAAUAUUACGAGAU | -2.39 ± 0.14 | -2.31 ± 0.23
23 | GGUCAGCAAUAUUACGAGGU | -1.01 ± 0.13 | -1.7 ± 0.22
24 | GGUCAGCAAUAUUACGAUAC | -1.32 ± 0.16 | -1.59 ± 0.19
25 | GGUCAGCAAUAUUACGCAAA | -1.16 ± 0.17 | -0.412 ± 0.18

Row | Sequence | self-splicing fitness (ln) (30 °C) | self-splicing fitness (ln) (37 °C)
26 | GGUCAGCAAUAUUACGCACU | -2.12 ± 0.27 | -0.976 ± 0.24
27 | GGUCAGCAAUAUUACGCAUU | 0.00502 ± 0.059 | 0.0322 ± 0.069
28 | GGUCAGCAAUAUUACGCCCA | -1.55 ± 0.21 | -0.611 ± 0.28
29 | GGUCAGCAAUAUUACGCUUA | 0.0476 ± 0.059 | 0.296 ± 0.078
30 | GGUCAGCAAUAUUACGGAGG | – | -2.54 ± 0.36
31 | GGUCAGCAAUAUUACGGAUA | -0.579 ± 0.086 | 0.248 ± 0.11
32 | GGUCAGCAAUAUUACGGGAG | -3.38 ± 0.22 | -1.45 ± 0.12
33 | GGUCAGCAAUAUUACGGGUG | -1.3 ± 0.067 | -0.637 ± 0.072
34 | GGUCAGCAAUAUUACGGUAU | -0.344 ± 0.11 | 0.218 ± 0.13
35 | GGUCAGCAAUAUUACGGUGC | -0.28 ± 0.075 | 0.535 ± 0.11
36 | GGUCAGCAAUAUUACGUACU | -1.84 ± 0.12 | -0.914 ± 0.13
37 | GGUCAGCAAUAUUACGUAGC | -0.572 ± 0.067 | -0.268 ± 0.081
38 | GGUCAGCAAUAUUACGUCUG | -0.665 ± 0.094 | -0.321 ± 0.11
39 | GGUCAGCAAUAUUACGUGAC | -2.08 ± 0.17 | -2 ± 0.24
40 | GGUGAGCAAUAUUACGACAA | -1.2 ± 0.26 | -0.76 ± 0.3
41 | GGUGAGCAAUAUUACGACGG | -2.18 ± 0.29 | -1.74 ± 0.3
42 | GGUGAGCAAUAUUACGAGCC | – | -1.52 ± 0.43
43 | GGUGAGCAAUAUUACGAGUC | -1.67 ± 0.24 | -1.83 ± 0.37
44 | GGUGAGCAAUAUUACGAUAC | -2.03 ± 0.16 | -0.811 ± 0.15
45 | GGUGAGCAAUAUUACGAUCG | -0.341 ± 0.095 | 0.221 ± 0.13
46 | GGUGAGCAAUAUUACGAUGC | -1.6 ± 0.13 | -0.514 ± 0.19
47 | GGUGAGCAAUAUUACGCAGU | -2.13 ± 0.32 | -2.45 ± 0.41
48 | GGUGAGCAAUAUUACGCCUG | – | -1.47 ± 0.28
49 | GGUGAGCAAUAUUACGCGCU | -1.7 ± 0.42 | –

From the supplement of paper PMC7877785
